Molecular target: PBMC-flu supernatant
Test: cell-based or functional assay

B1: ACO-1 (antibody, V domains shown)
VH: QVQLQQPGAELVKPGASVKLSCKASGYTFTNYWMHWVKQRPGQGLEWIGEINPSHGRTIYNENFKSKATLTVDKSSITAFMQLSSLTSEDSAVYFCARGGLGPAWFAYWGQGTLVTVSA
VL: QIVLTQSPAIMSASPGEKVTLTCSAGSSVDSSYLYWYQQKPGSSPKLWIYSTSNLASGVPARFSGSGSGTSYSLTISSMEAEDAASYFCHQWSSYPFTFGSGTKLEIKR
notes: also called ACO-1 monoclonal antibody; hybridoma ATCC PTA-6557
  neutralization of PBMC-flu, RG bioassay: > 50%

From patent US20090214565A1 (BAYLOR RESEARCH INSTITUTE, published 2009)
